The nature of the data set: label from the status in PepcDB records.

Consider “MGEGALAPGLQLLLRACEQGDTDTARRLLEPGGEPVAGSEAGAEPAGPEAARAVEAGTPVPVDCSDEAGNSALQLAAAGGHEPLVRFLLRRGASVNSRNHYGWSALMQAARCGHASVAHLLLDHGADVNAQNRLGASVLTVASRGGHLGVVKLLLEAGATVDHRNPSGESTASGGSRDELLGITALMAAVQHGHEAVVRLLMEWGADPNHTARTVGWSPLMLAALLGKLSVVQQLVEKGANPDHLGVLEKTAFEVALDRKHRDLADYLDPLTTVRPKTDEEKRRPDIFHALKMGNFQLVKEIADEDPNHVNLVNGDGATPLMLAAVTGQLPLVQLLVEKHADMNKQDSVHGWTALMQATYHGNKEIVKYLLNQGADVTLRAKNGYTAFDLVMLLNDPDTELVRLLASVCMQVNKDRGGRPSHRPPLPHSKARQPWSIPMLPDDKGGLKSWWSRMSNRFRKLKLMQTLPRGLAANQPLPFSDEPELALDSTMRAPPQDRTNHLGPPEAAHAAKDSGPGNPRREKDDVLLTTMLRNGAPFPRLPSDKLKAVIPPFLPPSSFELWSSDRSRTCPNGKADPMKTVLPPRASRAHPVGCVGTDGAAGRPVKFPSISRSPTSPASSGNFNHSPHSSGGASGVGSMSRLGGELHNRSGGSVDSVLSQIAAQRKKAAGLCEQKPPCQQSSPVGPATGSSPPELPASLLGSGSGSSNVTSSSKKLDPGKRPPSGTSATSKSTSPTLTPSPSPKGHTAESSVSSSSSHRQSKSSGGSSSGTITDEDELTGILKKLSLEKYQPIFEEQEVDMEAFLTLTDGDLQELGIKTDGSRQQILAAISELNAGKGRERQILQETIHNFHSSFESSASNTRAPGNSPSMAGWVRPEETVSSRR”, for which the protein production result is “failed”. As for “MGEKPWQPLLQSFEKLSNCVQTHLSNFIGIKNTPPSSQSTIQNPIISLDSSPPIATNSSSLQKLPLKDKSTGPVTKEDLGRATWTFLHTLAAQMTILSRMYPCRECADHFKEILRSNPAQAGSQEEFSQWLCHVHNTVNRSLGKLVFPCERVDARWGKLECEQKSCDLHGTSMDF”, the entry is “failed”; as for “MGENYKFFNHKDCEFFPCHKTNKPEEFNCLFCYCPLYALGENCGGNFKYTDKGIKDCSSCILPHKKDNYNYIMSKFQDLVKITSKKLEHHHHHH”, “failed”.

With “MGESYSSGYSLVVRVIANDRSGLLRDITTILANEKVNVLGVASRSDTKQQLATIDMDIEIYNLQVLGRVLAKLNQLPDVIDARRQQGALEHHHHHH”, the protein production result is “not failed”. For “MGEVFAGRYELVDPIGRGGVGAVWRAWDHRRRRYVAAKVLQQRDAHSLLRFVREQALRIDHPHVLAPASWAADDDQVLFTMDLVTGGSLVHLVGDYGPLPPEFVCTLLDQLLSGLAAVHGEGVVHRDIKPANLLLEATGTGRPRLRLSDFGIAMRLGEPRLTETNLVVGTPGYLAPEQMMGAEPDFPSDLFAVGLVALYLLEGAKPDAKVLVQHFAEHGTPPAPRGIPEPLWQVVATLLQPDPSARFRTATGARKALAAAVELLPEPGPDDELIEIFDQVGPLPTGFGPEGPFKRASGVDDVPTDPRRPAGTPPGVDPSPPATPPTPPPAPPWQGTPPAGPSSGLDRPSPGSPGPPPTGPDSTPASPPPGTPVTATGTPSAPGLPPASDQGWTPSTPSGPTAPPSAPSAPSAPSAPGPTRPAPHGTHSEEVPLAERPGAMSETGSFHLPPPQPTVTPTSDAAASDAAAEAAQPPAPHPAFTGGPRGLPPDRAPGRSQHPAPHGPPLTARSLAPSPARRADVPTAAYTARNPRSAPPAQHRGARRRRRPGPPARVALPVLLLALACYAVGFWALTRI” the value was “failed”. On to “MGEVFQKEAYAQELIDYYNQSTNDVLKRTASISENEKPRVLFLVYDQRKNSYWTPGGEFYQNNLITMAGGKTVSSDLPTGKAQINVEQAASWNPDVIITSAHTMEYPSTKVKEDVLTDEGWKEINAVKSGNVYAMPFDGESWDTLGSKYVLGLYWTAKTLEHHHHHH”, for which the protein production result is given as “not failed”. For “MGFIQWCLAHLNYWTIMFLMAIESSFIPFPSEIIVPPAAWMAATGQNGLNVFLVILFATIGAGIGAAVNYILSLLLGRPIVYAFANSKLGHLCLINEEKVRYAERYFDKNGAVSTLVGRLIPAVRQLISIPAGLARMKFLPFISYTMLGAGIWNCILAAIGYNLAKVPGIETQEQLLEKVNKYSHEIGFSIMGVVVVVLLIMFYKKKRRSARKGN” the value was “failed”; for “MGGGDGRRIDAFVSYSRAADSRLAPSIQRGLARLAKKWYRTRALNVFRDQTDLSASHALGASIERALADARFFVLLASPAAAESKWVAKEIEFWQRNRTSDTFLVALTDGTIRWDDEAGDFDWSVTDALPRSLSGYFEAEPLWQDLTWSRDADRLSLWHAGFRDAVATLAAPIHGSSKRALDNAEVKEHRALLLVGALATALILTLAVSFGIQYWFATAERDRANANARDATVMSAIQRAQVELADAETGYDVSAYRRLMAARSLAGRPSVEGAAYDAALDAAYSRPNLLRVTEVDSGPDSRAAMTVDGGRVAFGGKEQPTLWSPGTGRPSGPALEAAETTDSKALALAFSRDGKRLAAAYEAAVVLWDVASGKKINEFATDRRTTTSLALSPDGTTVAVAGGGLRIWDAGSGRRIGEPLGVTGDRVVFSPDGRKLAFDALNDGGSEVHVRGVGAEGAGEVVIPYPHDVISGIAFTPDTDALAVGTEDGGLRLWDPDSGAAEGRAMSGHQGAIRAIAFAAGGSRIATAGADRTIRQWNAETGSPIGFPLTGHAGPVDFIAFSRGGSELVSLGEDATLRRWDAGNALLRTGPDDASAPDALAVAPRGAKVAVGGREGVRVFNQETGVQVAALDLPQGVLSLSYSPDGTSLLIVSPDALRLWEEGAEARTVTLDSSVGPVAGAAFMPHGRQIVVGSYAGKLLFEDLDDEATGTPGASIDITCAARHLAVSQDGMQVAYACDDTGGVADAEAGGVRTFEAEDRVSALVISPDGRTLILGTLDGTLWRLEHGAEALVGVGVHRGAVRSVAYGPDGRWFASAGEDGSVVVHPHGAREISARIPAHTGPVEAVAFSGDGSRLISLGADKAARVWHVFRDPPGDLCERITYNMSESDWKKWISDSFGYRDQCAGKPRAHG”, “failed”.

Turning to “MGGGGGSRGPGHAARIAAPPFRPPSPCPAMLAAGEMCGAAHCPARPAPVSCRDRPRRFSSPSPLPGSLFFSPVAAGRRVSRPIFLFCSFGGFCMQRFLTLALLGAAALGGALAQNAAPAPAPAPVAQPAPAPQTAPATPAAQPAAPAVRPPAANYVVVGNLYYDQGKFDQAYVAFRTAAELDPRNTQALLGLGRSQVRLRLYAPAVDTLRRLTTVDPQNVSGYVALSQAYQQQYMGSGDRASVTGNLDAALAVLQQAEAAVTALPEADRALAQSKLLNERGSVYRLQGKPTQAIEAFRQASALNPENSLLLFNLGDMYAASGQLPLAVSALQQAVILDPRDPYNRAYYAKLLALSGNLTSARVEAAQASRLVTGNAYATGQYGVVSYLAGDRTTARTQLAQAVRLDPLRYPEFYYYLGRLDLDGSDLKSARDNLTRAVALNSTSAEYAYYLGLAYERGVPGVAADNVRARENYDKALKLAPGYKQAQEGADRLKPPSSGN”, the protein production entry is on record as “failed”. Regarding “MGGHPQLRLVKALLLLGLNPVSASLQDQHCESLSLASNISGLQCNASVDLIGTCWPRSPAGQLVVRPCPAFFYGVRYNTTNNGYRECLANGSWAARVNYSECQEILNEEKKSKVHYHVAVIINYLGHCISLVALLVAFVLFLRLRPGCTHWGDQADGALEVGAPWSGAPFQVRRSIRCLRNIIHWNLISAFILRNATWFVVQLTMSPEVHQSNVGWCRLVTAAYNYFHVTNFFWMFGEGCYLHTAIVLTYSTDRLRKWMFICIGWGVPFPIIVAWAIGKLYYDNEKCWFGKRPGVYTDYIYQGPMILVLLINFIFLFNIVRILMTKLRASTTSETIQYRKAVKATLVLLPLLGITYMLFFVNPGEDEVSRVVFIYFNSFLESFQGFFVSVFYCFLNSEVRSAIRKRWHRWQDKHSIRARVARAMSIPTSPTRVSFHSIKQSTAV”, the protein production result is on record as “failed”. As to “MGGIPDITPYPLTYSLGGVIPLSSVLEMLWVEKYRPRSLDDIVDQKHVVERLKQFVKQRNMPHLLFAGPPGTGKTTAAHALAHDLFGENYRQYMLELNASDERGINVIREKVKEFARSRTPPEIPFKIVLLDEADNMTSDAQQALRRLMELYSSVTRFILIANYPSKIIDPIQSRCAFFRFQPLSKQDVIERLRYIAENEGVDYEEEALDAIYEISEGDMRKAINVLQAASYLGKVTVDAVYRVVGMAKPREVREMLATALKGDFTAARSLLRKIMIEYGMSGEDVARQIHRELFSTELKMPEELRVLAADYLGEVHYRLVEGSDDDIQLSAFLAWLTMMSRKLEV”, the protein production entry is “not failed”.

Source of the values: a protein production outcome set (Wang et al. 2014).
